In patent publication US20160031996A1 (CSL, published 2016):

T1: chimera of human IL-3Rα residues 101-377 with GM-CSFRα domains (human, UniProt P15509 23-114)
T1 construct: on 293F cells
T1 sequence: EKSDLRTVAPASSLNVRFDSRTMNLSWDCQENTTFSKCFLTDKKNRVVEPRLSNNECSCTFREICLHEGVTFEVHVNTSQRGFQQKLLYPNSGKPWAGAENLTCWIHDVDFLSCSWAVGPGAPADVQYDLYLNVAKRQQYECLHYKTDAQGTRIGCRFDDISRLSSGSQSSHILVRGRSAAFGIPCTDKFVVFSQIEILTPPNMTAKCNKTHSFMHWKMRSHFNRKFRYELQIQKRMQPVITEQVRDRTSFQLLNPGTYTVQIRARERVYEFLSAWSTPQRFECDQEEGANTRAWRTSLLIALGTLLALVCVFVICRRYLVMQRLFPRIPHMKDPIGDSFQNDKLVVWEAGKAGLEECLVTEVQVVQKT

T2: wild-type human GM-CSFRα (human, UniProt P15509 23-400)
T2 construct: whole, on cells; negative control, on 293F cells; also called GM-CSFRa
T2 sequence (looked up): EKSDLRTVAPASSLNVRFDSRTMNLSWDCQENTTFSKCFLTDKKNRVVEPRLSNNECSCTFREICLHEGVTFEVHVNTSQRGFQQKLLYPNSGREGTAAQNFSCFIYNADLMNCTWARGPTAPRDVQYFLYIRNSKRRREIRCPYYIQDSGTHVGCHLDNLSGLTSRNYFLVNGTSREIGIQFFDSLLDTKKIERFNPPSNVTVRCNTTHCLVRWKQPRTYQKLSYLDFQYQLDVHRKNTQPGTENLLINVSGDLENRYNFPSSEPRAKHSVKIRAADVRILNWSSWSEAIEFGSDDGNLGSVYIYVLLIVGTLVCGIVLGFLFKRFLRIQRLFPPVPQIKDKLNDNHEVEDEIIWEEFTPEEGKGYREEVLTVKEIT

T3: human IL-3Rα E51Q/S59A/P88T triple mutant, full length (human, UniProt P26951 19-378)
T3 chain: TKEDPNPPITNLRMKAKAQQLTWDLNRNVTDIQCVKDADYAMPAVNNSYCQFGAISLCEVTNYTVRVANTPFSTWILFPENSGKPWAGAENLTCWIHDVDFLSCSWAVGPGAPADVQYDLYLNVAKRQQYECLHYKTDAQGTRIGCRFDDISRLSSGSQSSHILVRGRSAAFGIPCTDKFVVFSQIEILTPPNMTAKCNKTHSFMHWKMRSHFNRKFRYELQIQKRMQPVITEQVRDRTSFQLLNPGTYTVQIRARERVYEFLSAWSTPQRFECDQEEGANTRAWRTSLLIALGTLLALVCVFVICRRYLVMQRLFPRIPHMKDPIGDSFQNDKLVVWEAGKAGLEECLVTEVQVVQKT

T4: human IL-3Rα E51Q/S59A double mutant, full length (human, UniProt P26951 19-378)
T4 chain: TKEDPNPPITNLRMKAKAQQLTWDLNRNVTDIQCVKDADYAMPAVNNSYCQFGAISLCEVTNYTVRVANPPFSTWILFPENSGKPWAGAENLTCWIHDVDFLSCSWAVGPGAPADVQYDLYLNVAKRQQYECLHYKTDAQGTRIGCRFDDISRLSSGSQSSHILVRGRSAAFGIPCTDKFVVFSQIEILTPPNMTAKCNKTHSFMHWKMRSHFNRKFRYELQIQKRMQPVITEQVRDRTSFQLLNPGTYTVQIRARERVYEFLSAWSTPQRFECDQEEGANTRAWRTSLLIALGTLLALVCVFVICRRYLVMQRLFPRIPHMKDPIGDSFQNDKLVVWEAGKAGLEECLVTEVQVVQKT

T5: human IL-3Rα E51Q/P88T double mutant, full length (human, UniProt P26951 19-378)
T5 chain: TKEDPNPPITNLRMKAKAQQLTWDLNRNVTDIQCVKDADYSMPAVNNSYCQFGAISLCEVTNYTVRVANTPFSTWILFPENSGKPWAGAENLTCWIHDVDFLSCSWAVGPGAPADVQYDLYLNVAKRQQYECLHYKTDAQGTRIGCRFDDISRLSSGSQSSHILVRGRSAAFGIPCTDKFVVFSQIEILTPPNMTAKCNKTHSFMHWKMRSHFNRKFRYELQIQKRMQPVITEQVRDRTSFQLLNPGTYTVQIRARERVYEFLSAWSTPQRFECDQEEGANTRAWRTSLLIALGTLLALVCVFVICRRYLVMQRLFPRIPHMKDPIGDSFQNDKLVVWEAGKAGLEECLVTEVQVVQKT

T6: human IL-3Rα S59A/P88T double mutant, full length (human, UniProt P26951 19-378)
T6 chain: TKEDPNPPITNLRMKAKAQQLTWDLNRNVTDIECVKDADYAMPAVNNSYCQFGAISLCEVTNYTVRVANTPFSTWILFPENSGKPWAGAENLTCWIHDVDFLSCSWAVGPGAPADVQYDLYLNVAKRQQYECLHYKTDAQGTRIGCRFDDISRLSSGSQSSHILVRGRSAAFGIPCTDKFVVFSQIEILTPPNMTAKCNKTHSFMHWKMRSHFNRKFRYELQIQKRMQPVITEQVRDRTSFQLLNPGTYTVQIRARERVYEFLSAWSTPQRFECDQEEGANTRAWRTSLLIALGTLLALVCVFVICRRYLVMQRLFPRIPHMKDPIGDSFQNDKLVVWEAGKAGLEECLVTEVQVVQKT


Assays:
[1] = molecular target: T1, chimera of human IL-3Rα residues …; test: flow cytometry, transfected 293F cells
Text: Expression constructs were generated of frill length human IL-3Rα or of proteins comprising hIL-3Rα domains with various GM-CSFRα domains as depicted in FIG. 1A. […] Results are tabulated in Table 1 with positive staining (+) and negative staining (−) indicated.

[2] = molecular target: T2, wild-type human GM-CSFRα; test: Western blot, whole cell extracts
[3] = molecular target: T3, human IL-3Rα E51Q/S59A/P88T triple …; test: flow cytometry, MFI normalised to WT
Experimental: (§1) Median fluorescence intensity (MFI) of each antibody was determined for WT IL-3Rα and for each IL-3Rα mutant. The MFI of WT IL-3Rα staining for each antibody was set as 100% then the MFI of each mutant was normalized to a percent of WT staining.

[4] = molecular target: T4, human IL-3Rα E51Q/S59A double mutant, …; test: flow cytometry, MFI normalised to WT
Experimental: as §1

[5] = molecular target: T5, human IL-3Rα E51Q/P88T double mutant, …; test: flow cytometry, MFI normalised to WT
Experimental: as §1

[6] = molecular target: T6, human IL-3Rα S59A/P88T double mutant, …; test: flow cytometry, MFI normalised to WT
Experimental: as §1

Binder | binding result [1] | binding result [2] | MFI as percent of WT staining [3] | MFI as percent of WT staining [4] | MFI as percent of WT staining [5] | MFI as percent of WT staining [6]
monoclonal antibody 7G3 (antibody, V domains shown, mouse monoclonal antibody (hybridoma ATCC HB-12009)) VH: EVQLQQSGPELVKPGASVKMSCKASGYTFTDYYMKWVKQSHGKSLEWIGDIIPSNGATFYNQKFKGKATLTVDRSSSTAYMHLNSLTSEDSAVYYCTRSHLLRASWFAYWGQGTLVTVSA VL: DFVMTQSPSSLTVTAGEKVTMSCKSSQSLLNSGNQKNYLTWYLQKPGQPPKLLIYWASTRESGVPDRFTGSGSGTDFTLTISSVQAEDLAVYYCQNDYSYPYTFGGGTKLEIKR | no binding | no binding | 1 % of WT MFI | 1.4 % of WT MFI | 1.4 % of WT MFI | 3 % of WT MFI
antibody CSL362 (antibody, V domains shown) VH: EVQLVQSGAEVKKPGESLKISCKGSGYSFTDYYMKWARQMPGKGLEWMGDIIPSNGATFYNQKFKGQVTISADKSISTTYLQWSSLKASDTAMYYCARSHLLRASWFAYWGQGTMVTVSS VL: DIVMTQSPDSLAVSLGERATINCESSQSLLNSGNQKNYLTWYQQKPGQPPKPLIYWASTRESGVPDRFSGSGSGTDFTLTISSLQAEDVAVYYCQNDYSYPYTFGQGTKLEIKR | – | – | 2.9 % of WT MFI | 2.4 % of WT MFI | 2.5 % of WT MFI | 5 % of WT MFI
